Test results taken from patent US8852550B2, “Chelator conjugates” (GE Healthcare Limited, priority 2001, dated 2014).
Ends that are not written are not given here. Compound 1 = not defined here

What was measured:
[1] = 99mTc labelling of Compound 5, radiochemical purity by ITLC and HPLC (Example 11); type: physicochemical
Protocol: A freeze-dried formulation containing: • 50 μg PABA (para-aminobenzoic acid), • 30 μg SnCl2, • 90 μg MDP (methylenediphosphonic acid), • 1.32 mg NaHCO3, • 98 μg Na2CO3, • 4 mg NaOAc, was sealed under nitrogen gas in a 10 ml glass vial. The vial was removed from freezer storage and left at room temperature for 15 minutes, and was then reconstituted with 100 μl of a solution containing Compound 5, ie. the peptide-chelator conjugate Ac-Asn-Gln-Glu-Gln-Val-Ser-Pro-(I-Tyr)-Thr-Leu-Leu-Lys-Gly-[Compound 1] (2 mg in 2 ml water) and Xml of ^99mTc-pertechnetate in saline, with a radioactive concentration of 0.5 GBq/ml, from an Amertec II ^99mTc generator at room temperature. The activity was measured using an ion chamber. The RCP was measured using ITLC and HPLC. The results are shown in Table 3 for different values of X: […]

[2] = 99mTc labelling of Compound 9, radiochemical purity by ITLC and HPLC (Example 13); type: physicochemical
Protocol: Compound 9 was prepared in an analogous manner to Examples 7 and 8, and labelled with ^99mTc in solution (Preparation 1) or via a freeze-dried kit according to Example 10 (Preparation 2).
For Preparation 1, 100 μg of Compound 9 was dissolved in 1 ml of pH 8.5 borate buffer. This was transferred to a P6 vial and sealed. 1 ml ^99mTc-pertechnetate in saline (1.0 GBq/ml, from an Amertec II generator) was added at room temperature, together with 0.1 ml SnCl2 solution (10 mg SnCl2 in 100 ml N2 purged saline). The activity was measured using an ion chamber. The RCP was measured using ITLC and HPLC.

[3] = Prep 1, X 2 ml, 1.04 GBq, 255 min post-reconstitution
[4] = Prep 2, X 2 ml, 1 GBq, 15 min post-reconstitution
[5] = Prep 3, X 5 ml, 2.47 GBq, 15 min post-reconstitution

Substance | RCP % (ITLC) ([1]; Prep 1, X 2 ml, 1.04 GBq, 15 min post-reconstitution) | RCP % (HPLC) [1, 3] | RCP % (ITLC) [1, 3] | RCP % (HPLC) [1, 4] | RCP % (ITLC) [1, 4] | RCP % (HPLC) ([1]; Prep 2, X 2 ml, 1 GBq, 60 min post-reconstitution) | RCP % (HPLC) [1, 5] | RCP % (ITLC) [1, 5] | RCP % (HPLC) ([1]; Prep 3, X 5 ml, 2.47 GBq, 150 min post-reconstitution) | RCP % (ITLC) ([1]; Prep 4, X 2 ml, 1.02 GBq, 15 min post-reconstitution) | RCP % (HPLC) ([1]; Prep 4, X 2 ml, 1.02 GBq, 140 min post-reconstitution) | RCP by ITLC ([2]; Preparation 1: in solution, pH 8.5 borate buffer, room temperature) | RCP by HPLC ([2]; Preparation 2: freeze-dried kit according to Example 10)
Ac-Asn-Gln-Glu-Gln-Val-Ser-Pro-(I-Tyr)-Thr-Leu-Leu-Lys-Gly-[Compound 1] (chain 1 Ac-NQEQVSP; chain 2 TLLKG-{Compound 1}; not fully specified (C-terminus); reading uncertain; also: chains 1 and 2 joined in one chain through I-Tyr) [Compound 5, peptide-chelator conjugate of Compound 1 with thrombus-targeting peptide] | 99.4% | 86.8% | 99.2% | 83.0% | 99.3% | 85.2% | 86.5% | 99.3% | 87.6% | 99.1% | 86.6% | – | –
[Compound 1]-Cys-Cys-Glu-Leu-Cys-Cys-Asn-Pro-Ala-Cys-Ala-Cys-Tyr-OH ({Compound 1}-CCELCCNPACACY-OH; reading uncertain; also: cyclic, bridges not given here, printed as [Compound 1]-Cys-Cys-Glu-Leu-Cys-Cys-Asn-Pro-Ala-Cys-Ala-Cys-Tyr-OH) [Compound 9] | – | – | – | – | – | – | – | – | – | – | – | 96% | 82%
